How the values were obtained:
HEK 293 cells = experiment: Immunoblotting of HA-tagged aequorin expression (3F10 antibody, pixel quantification); type: cell-based; settings: western blot against HA epitope; HEK 293 lysates 48 hours post transfection; ImageQuant pixel quantification
Protocol: Expression of recombinant protein was verified by immuoblotting using Anti-HA-Peroxidase, High Affinity (3F10) monoclonal antibody (Roche). This antibody recognizes the HA peptide sequence […] derived from the […] hemagglutinin protein (Kolodziej &Young, Methods Enzymol. 194:508-511, […]). HEK 293 cells were transiently transfected with the codon optimised and the wild type aequorin constructs. Cell lysates were prepared 48 hours post transfection, proteins (130 μg) separated by SDS-PAGE electrophoresis, transferred to nylon membrane and stained with a 1:500 dilution of 3F10 antibody. Protein expression was quantitated using pixel quantification in ImageQuant software (Molecular Dynamics) and indicated a 8-fold increase in expression of cythuAEQ over cytAEQ.

HEK293 cells = experiment: Aequorin luminescence (calcium flux) after Ionomycin stimulation of transiently transfected cells; type: cell-based; settings: for Peak Relative Light Units (RLU) following Ionomycin Stimulation: HEK293 cells transiently transfected, 48 hours post transfection; for fold increase in RLU relative to wild type aequorin: number in parenthesis; for fold increase in luminescent output (RLU) with the codon optimised aequorin: text summary over 1 and 2 μM CaCl2, Ionomycin stimulation, versus wild type
Protocol: CHOK1 and Phoenix (HEK293 derived) cells were grown in Ham's F12 and DMEM respectively. The medium was supplemented with10% foetal calf serum, 2 mM glutamine, penicillin and streptomycin 100 μg/ml.
Cells were seeded in Costar 6 well plates at a density of 5×10^5 18-24 hours prior to transfection. On the day of transfection the cells were 85-90% confluent. Plasmids, cytaeqHA1(9aa)pcDNA3#2 and hucytaeqHA(9aa)pcDNA3#20, were transfected into the cells using Lipofectamine Plus reagents. A co-transfection with EGFP (Clontech) allowed transfection variation between wells to be ascertained. A modification to the standard protocol from Life Technologies was used. In summary, 2 μg of DNA (1 μg of each for co-transfections) diluted in 400 μl of HamsF12+12 μl lipofectamnine plus reagent was incubated for 15 minutes at room temperature. 8 μl of Lipofectamine reagent +400 μl of HamsF12 medium was also incubated for 15 minutes at room temperature. The two mixtures were combined and incubated for a further 15 minutes before being aspirated onto the cells containing 1.6 mls of Ham's F12 medium. The plates were incubated for 3 hours at 37° C. 5% CO2. The transfection reagents were replaced with Ham's F12 complete medium and the cells incubated for 24 hours. At 24 hours the cells were transferred to 96 well plates. 48 hours post transfection the 96 wells were rinsed in PBS and replaced with 50 μl of DMEM (without phenol red) containing 1% heat inactivated FCS and 2.5 μm hcp coelenterazine. The cells were incubated at 37° C. 5% CO2 for 3 hours. The wells were aspirated of the coelenterazine mix and replaced with 175 μl of PBS containing either 1 μM or 2 μM CaCl2. The plates were transferred to Tropix TR717 luminometer for stimulation. 2 μM of ionomycin (25 μl), a calcium ionophore, was injected into the wells and the reaction recorded over 60 seconds. 1:
Numbers in parenthesis represent the fold increase in RLU relative to wild type aequorin.

B1: Codon optimised: Codon-optimised (humanised) apoaequorin coding sequence SEQ ID NO: 3 with HA1 epitope, in pcDNA3 expression plasmid (nucleic acid)
DNA: ATGAAGCTGACCCCCGACTTCGACAACCCCAAGTGGATCGGCCGCCACAAGCACATGTTCAACTTCCTGGACGTGAACCACAACGGCCGCATCAGCCTGGACGAGATGGTGTACAAGGCCAGCGACATCGTGATCAACAACCTGGGCGCCACCCCCGAGCAGGCCAAGCGCCACAAGGACGCCGTGGAGGCCTTCTTCGGCGGCGCCGGCATGAAGTACGGCGTGGAGACGGAGTGGCCCGAGTACATCGAGGGCTGGAAGCGCCTGGCCTCCGAGGAACTGAAGCGCTACAGCAAGAACCAGATCACCCTGATCCGCCTGTGGGGCGACGCCCTGTTCGACATCATCGACAAGGACCAGAACGGCGCCATCTCCCTGGATGAGTGGAAGGCCTACACCAAGTCCGTCGGCATCATCCAGTCCTCCGAGGACTGCGAGGAGACGTTCCGCGTGTGCGACATCGACGAGAGCGGCCAGCTGGACGTGGACGAGATGACCCGCCAGCACCTGGGCTTCTGGTACACCATGGACCCCGCCTGCGAGAAGCTGTACGGCGGCGCCGTGCCCTAA
modifications: HA1 epitope fused, in pcDNA3; humanised apoaequorin
- fold increase in expression over non-humanised (wild type) aequorin (HEK 293 cells): ~8 fold
- Peak Relative Light Units (RLU) following Ionomycin Stimulation (HEK293 cells; 1 μM CaCl2): 18008 RLU
- fold increase in RLU relative to wild type aequorin (HEK293 cells; 1 μM CaCl2): 19 fold
- Peak Relative Light Units (RLU) following Ionomycin Stimulation (HEK293 cells; 2 μM CaCl2): 15561 RLU
- fold increase in RLU relative to wild type aequorin (HEK293 cells; 2 μM CaCl2): 21 fold
- fold increase in luminescent output (RLU) with the codon optimised aequorin (HEK293 cells; listed as codon optimised aequorin): 19-21 fold
- fold increase in luminescent output (RLU) with the codon optimised aequorin (HEK293 cells; listed as codon-optimised sequence): > 20 fold

B2: Wild type: Wild-type jellyfish apoaequorin gene SEQ ID NO: 2 with HA1 epitope in pcDNA3, used as control (nucleic acid, listed as Aequorea victoria)
DNA: ATGAAGCTTACATCAGACTTCGACAACCCAAGATGGATTGGACGACACAAGCATATGTTCAATTTCCTTGATGTCAACCACAATGGAAAAATCTCTCTTGACGAGATGGTCTACAAGGCATCTGATATTGTCATCAATAACCTTGGAGCAACACCTGAGCAAGCCAAACGACACAAAGATGCTGTAGAAGCCTTCTTCGGAGGAGCTGGAATGAAATATGGTGTGGAAACTGATTGGCCTGCATATATTGAAGGATGGAAAAAATTGGCTACTGATGAATTGGAGAAATACGCCAAAAACGAACCAACGCTCATCCGTATATGGGGTGATGCTTTGTTTGATATCGTTGACAAAGATCAAAATGGAGCCATTACACTGGATGAATGGAAAGCATACACCAAAGCTGCTGGTATCATCCAATCATCAGAAGATTGCGAGGAAACATTCAGAGTGTGCGATATTGATGAAAGTGGACAACTCGATGTTGATGAGATGACAAGACAACATTTAGGATTTTGGTACACCATGGATCCTGCTTGCGAAAAGCTCTACGGTGGAGCTGTCCCCTAA
modifications: HA1 epitope fused, in pcDNA3
- Peak Relative Light Units (RLU) following Ionomycin Stimulation (HEK293 cells; 1 μM CaCl2): 944 RLU
- Peak Relative Light Units (RLU) following Ionomycin Stimulation (HEK293 cells; 2 μM CaCl2): 734 RLU

Source: patent US20040171005A1, “Codon-optimised nucleic acid coding for apoaequorin and uses thereof” (priority 2001, published 2004)
